According to patent US7897569B2, “Use of HMGB fragments as anti-inflammatory agents” (The Feinstein Institute for Medical Research, priority 2001, dated 2011):

Test system: D-galactosamine-sensitized Balb/c mice
Assay: Histology and serum cytokines in D-galactosamine-sensitized Balb/c mice
Format: in vivo
Protocol: To further assess the lethality of the HMGB1 B box protein in vivo the HMGB1 B box was again administered to D-galactosamine-sensitized Balb/c mice. Mice (3 per group) received D-gal (20 mg/mouse) plus B box or vector (1 mg/mouse) intraperitoneally for 7 hours and were then sacrificed by decapitation. Blood was collected, and organs (liver, heart, kidney and lung) were harvested and fixed in 10% formaldehyde. Tissue sections were prepared with hematoxylin and eosin staining for histological evaluation (Criterion Inc., Vancouver, Canada). The results of these studies are shown in FIGS. 7A-7J, which are scanned images of hematoxylin and eosin stained kidney sections (FIG. 7A), myocardium sections (FIG. 7C), lung sections (FIG. 7E), and liver sections (FIGS. 7G and 7I) obtained from an untreated mouse and kidney sections (FIG. 7B), myocardium sections (FIG. 7D), lung sections (FIG. 7F), and liver sections (FIGS. 7H and 7J) obtained from mice treated with the HMGB1 B box. […] In FIG. 7J, hepatocyte dropouts are seen surrounded by accumulated polymorphonuclear leukocytes. The arrows in FIG. 7J point to the sites of polymorphonuclear accumulation (dotted) or apoptotic hepatocytes (solid).

[1] = 1 mg/mouse ip plus D-gal, 7 hours

B1: B box: Human HMGB1 mutant containing only the B box, SEQ ID NO:20 (protein)
chain: FKDPNAPKRLPSAFFLFCSEYRPKIKGEHPGLSIGDVAKKLGEMWNNTAADDKQPYEKKAAKLKEKYEKDIAAY
- histology of heart [1]: some ischemic changes and loss of cross striation in myocardial fibers
- histology of kidneys and lungs [1]: no abnormality
- histology of liver [1]: active hepatitis
- serum levels of IL-1β (B box in vivo, Balb/c mice): 15+3 pg/ml
- serum levels of IL-6 (B box in vivo, Balb/c mice): 315+93 pg/ml
